Test system: MBP-p33C (C-terminal soluble portion of p33 replication protein) (Tomato bushy stunt virus)
Test: biotin-RNA pull-down, anti-p33 immunoblot
Details: EMSA: 10 mM HEPES pH 7.4, 50 mM NaCl, 1 mM DTT, 1 mM EDTA, 5% glycerol, 2.5 mM MgCl2, 0.1 ug tRNA, 2 U RNase inhibitor, 10 ul, 0.1 pmol RNA (EMSA temperature …)

RII(+)
binding signal (% of MBP control): 50
